Results on three molecules are retold here after patent US20250051442A1 (UNIVERSITY OF TSUKUBA, published 2025).

Where a chain is given by its changes, count along the chain named.

Assay [1] addresses T1, human DNAM-1 (human, UniProt Q15762 19-336).
T1 construct: whole, on cells; also called hDNAM-1; CD226
T1 sequence (looked up): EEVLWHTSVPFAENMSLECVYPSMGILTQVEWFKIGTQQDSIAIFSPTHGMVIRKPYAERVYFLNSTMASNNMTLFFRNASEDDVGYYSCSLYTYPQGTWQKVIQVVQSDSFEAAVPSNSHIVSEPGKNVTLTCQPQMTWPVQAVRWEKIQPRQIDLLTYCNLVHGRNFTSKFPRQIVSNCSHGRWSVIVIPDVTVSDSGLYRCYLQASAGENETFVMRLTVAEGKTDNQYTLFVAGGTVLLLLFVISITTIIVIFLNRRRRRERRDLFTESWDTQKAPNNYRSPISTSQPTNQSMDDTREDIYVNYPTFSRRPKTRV
The assay is described as follows: flow cytometry on BW5147 cells stably expressing human DNAM-1 (hDNAM-1/BW). A general note: In flow cytometry, cells or beads pass a laser one at a time.

In assay [2] the target is T1, human DNAM-1. The assay is described as follows: flow cytometry on hDNAM-1/BW cells, antibody purified from CHO-K1. As for the experimental part:
Binding to human DNAM-1 was examined by flow cytometry using a mouse lymphoblast BW5147 cell line (hereinafter, may be referred to as “BW”) and BW5147 stably expressing human hDNAM-1 (hereinafter, may be referred to as “hDNAM-1/BW”). Test antibodies at various concentrations were incubated with about […] hDNAM-1/BW cells at 4° C. for 1 hour in PBS (FACS buffer) containing 0.5% BSA and 0.05% NaN3. Thereafter, the cells were washed with ice-cooled FACS Buffer, and incubated at 4° C. for 30 minutes using a PE-labeled goat anti-human IgG antibody (manufactured by SouthernBiotech). After washing with FACS buffer, the stained cells were analyzed using a FACScan flow cytometer (manufactured by BD Biosciences).

B1: anti-human DNAM-1 monoclonal antibody mAKB1 (antibody, V domains shown)
VH: DVQLQESGPGLVKPSQSLSLTCSVTGYSITSGYYWNWIRQFPGNKLEWMGYISYDGSNNYNPSLKNRISITRDTSKNQFFLKLNSVTTEDTATYYCARAYYGNYVGYFDVWGAGTTVTVSS
VL: SIVMTQTPKFLLVSAGDRVTITCKASQSVSNDVAWYQQKPGQSPKLLIYYASNRYTGVPDRFTGSGYGTDFTFTISTVQAEDLAVYFCQQDYSSPLTFGAGTKLELKR
notes: also called clone mAKB1
With B1, it took 6 µg/mL to reach a half-maximal effect with human DNAM-1 [1] (EC50).

B2: humanized anti-DNAM-1 antibody hAKB1-B (antibody, human IgG1, kappa, L234A L235A, V domains shown)
VH: QVQLQESGPGLVKPSETLSLTCTVSGYSISSGYYWNWIRQPPGKGLEWMGYISYDGSNNYNPSLKNRVTISRDTSKNQFSLKLSSVTAADTAVYYCARAYYGNYVGYFDVWGQGTTVTVSS
VL: DIQMTQSPSSLSASVGDRVTITCKASQSVSNDVAWYQQKPGKAPKLLIYYASNRYTGVPSRFSGSGYGTDFTFTISSLQPEDIATYYCQQDYSSPLTFGGGTKVEIKR
notes: Full chains without signal peptide; also called phAKB1-B (expression vector); hAKB1-VH2 + hAKB1-VL1
In turn, B2 gave an EC50 with human DNAM-1 [2] of 5 µg/mL.

B3: humanized anti-DNAM-1 antibody hAKB1-A (antibody, human IgG1, kappa, L234A L235A, V domains shown)
VH: B2 VH with S30T
VL: B2 VL
notes: Full chains without signal peptide; also called phAKB1-A (expression vector); hAKB1-VH1 + hAKB1-VL1
In the assay with human DNAM-1 [2], B3 displayed an EC50 of 5 µg/mL.

In general, EC50 refers to the concentration giving half of the maximal effect. High values mean lower potency in that assay, low ones higher potency in that assay.
